This series concerns the molecule itself. As to the kind of experiment: SAXS titration.

B1: Gp4D (residues 241-566, 36-kDa), minimal fragment of the T7 gene 4 helicase that forms hexameric rings (domain or fragment, bacteriophage T7, UniProt P03692 241-566, looked up)
chain: CHLNGHDREIMEQVWNAGPWIPDGVVSALSLRERIREHLSSEESVGLLFSGCTGINDKTLGARGGEVIMVTSGSGMGKSTFVRQQALQWGTAMGKKVGLAMLEESVEETAEDLIGLHNRVRLRQSDSLKREIIENGKFDQWFDELFGNDTFHLYDSFAEAETDRLLAKLAYMRSGLGCDVIILDHISIVVSASGESDERKMIDNLMTKLKGFAKSTGVVLVVICHLKNPDKGKAHEEGRPVSITDLRGSGALRQLSDTIIALERNQQGDMPNLVLVRILKCRFTGDTGIAGYMEYNKETGWLEPSSYSGEEESHSESTDWSNDTDF
With B1, the binding result is reported as “binds”.

The values are drawn from publication PMC3666333 (Nature communications, 2013).
